Measurements: patent US20250320501A1, “PALMITOYLATION OF THE ALTERNATIVE AMINO TERMINUS OF THE BTK-C ISOFORM CONTROLS SUBCELLULAR DISTRIBUTION AND SIGNALING” (The Research Foundation for the State University of New York, priority 2022, published 2025)

Test system: BTK-A and BTK-C
Assay: Activating phosphorylation of BTK isoforms after stimulation with other ligands
Assay type: cell-based, human
Details: ligand stimulation (not shown)

B1: RANKL: ligand used for stimulation of BTK activation (protein, UniProt O14788 140-317, looked up)
Tumor necrosis factor ligand …: IRAEKAMVDGSWLDLAKRSKLEAQPFAHLTINATDIPSGSHKVSLSSWYHDRGWAKISNMTFSNGKLIVNQDGFYYLYANICFRHHETSGDLATEYLQLMVYVTKTSIKIPSSHTLMKGGSTKYWSGNSEFHFYSINVGGFFKLRSGEEISIEVSNPSLLDPDQDATYFGAFKVRDID
With B1 the “increase of activating phosphorylation levels above unstimulated levels” value was “only modestly”.
